The domain aggregation screens of Martell et al. (2025)

Assay: soluble fraction after stress (log2 fold change); higher = more stays soluble; pooled small domains, quantitative proteomics
Settings: stress: pH 4
How it was run: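 After pH 4 stress, pooled custom libraries of small protein domains were quantified with high-throughput quantitative proteomics. Aggregation propensity is taken from the fold change in each domain's soluble amount following the acid stress. The scale is log2, where higher values mean more stayed soluble.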
With “HMSDTGQELHDALNMARRTLTILEEQAAGYTALTIPARLVLELEEKRKDVVRLETQIRSAATGTPG” the “soluble fraction (log2)” value was 0.00666.
With “HMIGEKLKEIREKTGMNKKEFAQYLGLKYTTYNNYETEAREPASDFLILISTKFDVSIDYLLGLQ” the “soluble fraction (log2)” value was -0.389.
With “HMFVGVDMAVKEEIGKEGVAFTDLRPAGKVSIGDDVYDAVSETGAFITRGTSVRVLKYQAGQVYVVK” the “soluble fraction (log2)” value was 0.354.
With “HMGSNENTIREYFDSLIASASKREIMDANPTMSQRTVERILQKLQAEGYVEKIGAARSTRYRRA” the “soluble fraction (log2)” value was -0.0919.
With “HMQELNDQQRLAILNEWNNRATNPPSLLELVRVAFPDAEGADGRSWHGKKVKEFLSTRQIKARAS” the “soluble fraction (log2)” value was -0.282.
With “HMLIELKIPSEWAGKSLHTLNLRQNYNVNVIGFRDEKSGKLNTHFDPSKKLPDEGIILVVADNRTLEKF” the “soluble fraction (log2)” value was -0.451.
For “HMENQGEDMRQQVKALVNADKTNITKLATATGYSRSTISMYLAGNYKGDVEAVERRLEEYMKTQG”, the “soluble fraction (log2)” value was 0.167.
For “HMDATIGGFKITDSAIYSGVKNNVNAGVRGTYIDKDGQIAFGDSNSYLKYYKDTDGKWKLEVSASSVKF”, the “soluble fraction (log2)” value was -0.476.
In the case of “HMAYSEEERNLIRSRLKDVAAALFKEKGIRDTNIDEIYTPVGISKTFFYSFFPSKAVLAIAIMK”, the “soluble fraction (log2)” value is reported as -0.267.
With “HMGSQQIEEGMRRLVASGALRPGASVPSVRDLARDLQVNPATVVRAYQRLVDAGLLVVRRGEGTFVAE” the “soluble fraction (log2)” value was -0.103.
In the case of “HMDNREKLRQEFLENLKELQEQNDIPQQEIDRVILDYDGVAEFLEDEGALKRYGGQLVDMTAYRAGAIPS”, the “soluble fraction (log2)” value is reported as -2.
With “HMSNEITVPDLSGMSLEELETILSDRSLSYEIIDSIYNSTAKKGTVSSQDPLPDAKVKSGRTIYITVVSKL” the “soluble fraction (log2)” value was -1.31.
In the case of “HMTAPELGIRQDGNTLVIFWPSSVTGYVLKSADAVDTPPASWTSVTHTTVGDEHRAEITPTGNSRFFRLV”, the “soluble fraction (log2)” value is reported as -0.492.
With “HMGEVISRSYPLLKTKAKPAEVSEALQKLIKAPATVTFDEKNEVFHINATRLQHTWAEGYFKGLHGK” the “soluble fraction (log2)” value was -0.172.
With “HMGMTTSILDDVIGMGPKRKKALLKAFGSFGALRNATLEEIKQTHTVPEQVAEDVYAVLVQYNSKSE” the “soluble fraction (log2)” value was -0.171.
For “HMPPPVERAIRKLGHDLSLARRRRRISQDSMAQRMGASVSTVRRIEKGDPRIPIHFIARAMMILGDLKAL”, the “soluble fraction (log2)” value was -0.105.
For “HMALHDTLSYEEYLDLGLNGKADSAEKRELVAHALHLGRPNAKTLYKRLNMLQLNRKDVAALLEQ”, the “soluble fraction (log2)” value was 0.299.
For “HMGTTKGVVDVTVPNGRASQHVKLVVIDDDGGRVVYDGTNAPGDRIVKSVSGSGNVRVQIYLNNALVQEQS”, the “soluble fraction (log2)” value was -0.306.
With “HMDGPGAGGRFLAEDLGTGKMTLEALQRHYVTLVYSRTGKYEETARRLEIDRRTVKKYLDEELLAELRET” the “soluble fraction (log2)” value was -0.0817.
For “HMQISSSEVLEKVVDEILSANPKSIEDYKNGKLQAAGFLMGQVMKATKGQANPAVAKELIEAKLKD”, the “soluble fraction (log2)” value was 0.124.
With “HMAGTPAIVKWFNPTKGFGFVTPKEAGSDALLHASVLAKRGKRWLQEGTLVEVLIEEGPKGLVVSELLTIE” the “soluble fraction (log2)” value was -0.659.
For “HMKPALFSADELNRLYRYGLSLTGERDRAYDLLQTALEKYLRQSQAPANAMRYVRKIMHNQFIDDYR”, the “soluble fraction (log2)” value was -0.0906.
For “HMEEEVKVPKIKGLTEAEAKAKLKSEGLESGTARSAYSDTVEEGHIISQSIQEGTKVPKGTAVSYEVSKGK”, the “soluble fraction (log2)” value was 0.22.
With “HMGTELSYSEFLNKVEAGEVTNVTIRGPEITFQTGNSSYTTYAPDDPKLIEHLTAKGVAIKAGP” the “soluble fraction (log2)” value was -0.311.
With “HMANTLDPMDLKQIISLHLDGFSNRKIGATLGISRNTVNTYMRLFSVSDYALKELLTLDNATLDKLFPS” the “soluble fraction (log2)” value was -0.603.
For “HMYQPLYEQIKRMLTQSLIDGEWKAGEMIPSEMELAARFKVSQGTVRKAIDELVSENILMRRQGKGTFVH”, the “soluble fraction (log2)” value was 0.22.
In the case of “HMGASGVEVPDVAGMSTAQAVSSLEQKGFVVNRTESYDAGVEKGNVISQSPEGGTKAPNGSAVTIRISQGA”, the “soluble fraction (log2)” value is reported as 0.081.
With “HMEGVNLTVQEAKQMAAIIAPLLKQGQSPYQIVTNHPELGISEKTLYNYIENDVFHEIAGITVMDL” the “soluble fraction (log2)” value was -0.881.
In the case of “HMEERDMKGSISDLVERYADQLTDEQLEEIVLGIKNGLLEEDVKSYFFLPAEDMRRIRTALEQVR”, the “soluble fraction (log2)” value is reported as -1.6.
With “HMGYQLSLEAQSQLKALGLTSEYITRILDEADNRQPIPGTSRTVYSLNGYQVEFSHSDQQVIRIARG” the “soluble fraction (log2)” value was -0.262.
With “HMNREENIQIGRDLLERELRKQGMDLQENLRQEVLLDGAKKLGFNNTDDLLAAIGDLKVTPAMFIGKIA” the “soluble fraction (log2)” value was -0.168.
For “HMRTVEQFQIRKIYAISNALGISDSRADEDELHVLVSGLTGKDSIKELTYREASVVIERLEELQ”, the “soluble fraction (log2)” value was -0.62.
In the case of “HMAMTQNVDLAGRIVFNEKKEEVFNFGKHKGRSVAEVFEKEPSYYDWMLKGDFPAETKQVLTALRLRGLS”, the “soluble fraction (log2)” value is reported as -0.64.
With “HMTNIDIEKSIKNTITANYDDVLNYHNEDDNKTFASGDSRYSFDYDEKTKTLIVFTNSKVDAVFVDGIKKK” the “soluble fraction (log2)” value was 0.255.
In the case of “HMRADRLISMLMLLQARGKITAEELAVELGVSQRTIYRDIEALSFAGVPVYAERGPGGGIGLLEPY”, the “soluble fraction (log2)” value is reported as -1.21.
For “HMIDVGSKIRSLRKSKNISISTLAKNSDLSTGLISQIERNMVVPSIVAMWKISKALDINIGYFFE”, the “soluble fraction (log2)” value was -0.109.
In the case of “HMKSIFIRADELAAELDVSKALAYKMINQWNEELKAKGYTTVGGRVSRQYYYEKIYGAENVFDF”, the “soluble fraction (log2)” value is reported as -1.78.
For “HMIGVQEFAMTYALTRRETEITQLIIQGKSNAMIAGELFISETTVKKHVSNIFEKTGVSRREELMVRVQAE”, the “soluble fraction (log2)” value was -1.45.
